Laboratory results from the supplement of paper PMC10126150.
± gives the standard deviation of the averaged measurements.

Test system: ATP
Assay: switch fluorescence ratio, 500 uM ATP over buffer (Cy3 cluster intensity, sum of 5 cycles each) (fold (ratio)); higher = stronger signal-on switching upon ATP binding; sequences stand for … in TCGTCGGCAGCGTCAGATGTGTATAAGAGACAGTTTTTTTTTTTTTTTTTTTTTTTTT…TC
Conditions: aptamer strand: ATP DNA aptamer (quencher-CACCTGGGGGAGTATTGCGGAGGAAGG + anchor), 100 nM annealed; ATP concentration: 500 uM
Summary of the method: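 The quencher-labelled ATP aptamer, at 100 nM, was annealed to Cy3-labelled switching-strand clusters on a modified Illumina MiSeq flow-cell. The clusters were imaged in selection buffer, then after 15 min with 500 uM ATP at 22 °C, and this buffer/ATP cycle ran five times with NaOH stripping and re-annealing between runs. Per-cluster fluorescence ratios, summed target-cycle over summed buffer-cycle Cy3 intensity, were averaged per switch-domain sequence. Clusters outside 100-1000 RFU were excluded.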
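Also: ATP exposure 15 min at 22 °C before imaging.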

Sequence	switch fluorescence ratio
GCTGTACGAT	1.16 ± 0.012
TGTTGTGCAG	0.958 ± 0.03
GCTTGTACGG	1.01 ± 0.039
CGTGCGGGGA	1.02 ± 0.032
TTTTATTAGA	0.974 ± 0.065
TGGGGAAGGA	0.99 ± 0.018
GGAGCAGCTA	1.06 ± 0.028
AGGTGGGCTG	0.963 ± 0.024
AATGGGGATG	0.998 ± 0.058
GAATGGGTCC	1.01 ± 0.029
ATTCGCAGCC	1.55 ± 0.029
TAGGATGGAG	0.97358 ± 0.00078
GGGGTAAGGT	0.99 ± 0.036
TGCTTATGGT	0.965 ± 0.029
ATGTTAAAAG	1.01 ± 0.035
AGAGTCATGG	1 ± 0.013
TGTTTGTTCG	0.986 ± 0.021
AGGTGTTCTA	1.02 ± 0.021
TTATGGCGCC	0.9862 ± 0.0046
TATACTTAAT	1.059 ± 0.0053
GCTGTTTACT	1 ± 0.012
TGGACGAAGT	1.01 ± 0.023
TTCCACTTGA	1.04 ± 0.047
TTTTCTCTGT	0.967 ± 0.023
TAAGTAGTTT	1.02 ± 0.013

Sequence	switch fluorescence ratio
TCTGGGGTTT	1.03 ± 0.051
GCTAAAAAGC	0.998 ± 0.033
TTTCGTTTAC	1.272 ± 0.0071
AACGCCGAGT	0.9816 ± 0.0097
TTTTGAGGTG	1.06 ± 0.028
TCTAGTGGTA	0.9893 ± 0.0096
TGCACAAGAT	1.02 ± 0.011
CGGGGGGGGG	1.02 ± 0.054
TCTTTCAGGA	0.999 ± 0.013
TTTGCAATGT	1.29 ± 0.1
TTGAGATTTG	1.01 ± 0.013
GCAAACTAGG	1.11 ± 0.17
TGCTCCGTCG	1.2 ± 0.039
ATTAGGTCTG	0.941 ± 0.044
TTAGGGCAGG	1.06 ± 0.058
CCTCTATTCA	1.06 ± 0.019
GCCAGAGTG	2 ± 0.44
AGGGCGTTTC	1.009 ± 0.0032
TTTCAGGTCG	1.02 ± 0.088
CGGATTAGTG	0.964 ± 0.018
AAGGGGGCTT	0.9943 ± 0.0025
CCTGCATGTG	1.26 ± 0.02
GTTAACTTGA	1.01 ± 0.011
CTAACTGGCA	1.048 ± 0.009
GACCAAGGGT	0.978 ± 0.012

Sequence	switch fluorescence ratio
GCTATGTGGG	1.003 ± 0.0041
GGCAAATTTT	1.02 ± 0.036
CAAAAGGCAG	0.984 ± 0.048
TGACGGAGGC	1.06 ± 0.051
CGTCATTTTC	1.05 ± 0.1
TTCGGTCGGG	0.987 ± 0.028
TCCTGATTGT	0.988 ± 0.022
GAGGTGACTG	1.01 ± 0.015
GCGTATCTTA	0.968 ± 0.014
TTCCTTTTAC	1.16 ± 0.008
TTGGAAACGT	1.06 ± 0.067
TTAAGTCCA	0.995 ± 0.038
TATTTCTGTT	0.984 ± 0.025
CGTGGGGGCA	0.9538 ± 0.0076
GGCCGGGGTA	1 ± 0.046
AACAATTGGG	0.978 ± 0.0039
ACTAGCTCTG	1 ± 0.023
CTTAGCGGGG	0.9827 ± 0.0064
AATAAGTATT	1.024 ± 0.003
TCGGCTTAGG	0.987 ± 0.048
TTGGAGGTTT	1.17 ± 0.24
TGCAAGAGTG	1.03 ± 0.011
TAGAATTATC	1.017 ± 0.0056
TTCAGTTAAT	1 ± 0.0032
TGACGTTCAG	0.996 ± 0.02

Sequence	switch fluorescence ratio
TTTGTTTTGA	1.02 ± 0.027
GTAGACGGGT	1.03 ± 0.031
ATTTAAGAGA	1.01 ± 0.051
CTGAATGC	1.17 ± 0.035
CTGGGGTGGC	1.03 ± 0.046
AGGTGAAGTT	1.02 ± 0.062
TAATTTACCT	1.275 ± 0.0075
ATCCATATT	1.03 ± 0.029
GTTTCAGGT	0.991 ± 0.027
GATGAGCTGT	1.03 ± 0.046
CCTGAATTTC	1.12 ± 0.14
TACGTACGCC	1.57 ± 0.073
CTCTGGGCAT	2.2 ± 1.9
AATAGCAGGA	1.02 ± 0.02
GCCATTGTGG	0.99 ± 0.019
TGGCCTAGTG	1.002 ± 0.0071
AGCGGTCCTC	1.09 ± 0.039
GGTTGGCCGC	1.02 ± 0.032
TAATGGGGGC	0.994 ± 0.018
GTGGCTTTGT	1.02 ± 0.029
TCTCTTGGGA	1.03 ± 0.024
TGTTAGTGGT	1.01 ± 0.023
GGTGGGGGGG	1 ± 0.036
CATTGCTCTG	1.02 ± 0.026
ACTTACTATC	1.193 ± 0.0046

Sequence	switch fluorescence ratio
CAGACGCGGG	0.99 ± 0.057
TACGGGCGGC	1.05 ± 0.016
TACGTATACT	1.39 ± 0.015
TGTGACTCGG	0.978 ± 0.016
CTGTAGGGGG	1.07 ± 0.13
ATACGGGGGG	0.989 ± 0.017
TTGAGCATAT	2.12 ± 1.2
GAGGTGTTCA	1.01 ± 0.02
TGTGACGGAC	1.12 ± 0.015
GGGGAAAAGT	1.01 ± 0.029
TTACACATCA	1.083 ± 0.0047
AACTGGAGGA	0.9715 ± 0.002
CGTTACGCTG	0.979 ± 0.026
GAAATGCGGC	0.97935 ± 0.00044
CGATTTTGTT	0.989 ± 0.034
ATTCGGTCAT	1 ± 0.015
ACTATCGAAA	1.09 ± 0.03
CAAGTGCTTG	1.03 ± 0.014
GATAGGCGTG	1.01 ± 0.029
TCGTGGATGT	1 ± 0.028
TGGTTGGCTC	0.985 ± 0.042
ATTTATGGGG	1 ± 0.032
ATTGGGTTGT	0.973 ± 0.015
GCTTTTGCAC	1.028 ± 0.0078
ACAAGTGTGC	1.04 ± 0.018

Sequence	switch fluorescence ratio
ACCCGTTTTG	1.01 ± 0.025
CATTCGGATG	1.01 ± 0.055
AGTCTTAATA	0.986 ± 0.034
TCAGCATGCG	0.933 ± 0.025
ATATTTAGTT	1.01 ± 0.051
TTATGGTCCG	0.976 ± 0.045
ATATTTAGAG	0.992 ± 0.027
TCTCGGCTGG	0.9962 ± 0.001
CGGGAATTGG	0.961 ± 0.067
TGTTGGGGGC	1.03 ± 0.12
TCAAGCGAAC	1.48 ± 0.061
ATGTTAACG	0.999 ± 0.043
ATCTAATGCC	1.01 ± 0.042
TTCGGGGAT	0.982 ± 0.032
AGGAGGGGAT	1.02 ± 0.045
GAGGTAGTCT	1.07 ± 0.14
GTTTGAGGTG	1 ± 0.044
CCGGACAGTG	1.09 ± 0.099
AAACGTAACG	1.07 ± 0.029
ATAGGCATGC	1.06 ± 0.067
TTTTCTCTTC	0.9808 ± 0.0054
AAATGCCAGG	1.08 ± 0.032
CTAATGAGTT	0.999 ± 0.03
ACTTTTTCGG	0.9909 ± 0.006
ACCTAGCGAT	1.57 ± 0.03

Sequence	switch fluorescence ratio
ATCTGGGGCC	1.01 ± 0.012
GTGTCATGGA	1 ± 0.029
CATGTGTGAG	0.949 ± 0.026
TTTTGTATTC	1.05 ± 0.12
TCGGAGGTCA	0.956 ± 0.03
CAGTGTGTGG	0.9696 ± 0.0024
GCGGTTAGAA	1.02 ± 0.026
TTGAGGTCGG	1.005 ± 0.0066
AGGAAAACAG	1.026 ± 0.0032
TAAGGTACAT	1.09 ± 0.012
TCCGCACCGT	1.76 ± 0.23
TTGGGGCTGA	0.993 ± 0.037
GACATTGTTA	1.01 ± 0.063
TAACGCATCT	1.149 ± 0.0052
ATTCCTAGA	0.992 ± 0.021
TCACCGCACG	2.2 ± 0.36
AAGTAGCTAT	1.01 ± 0.043
GCATTGTCAA	0.992 ± 0.07
CAATACTAAC	1.32 ± 0.037
GAAGTTCGTG	1.01 ± 0.055
TTTTACCGTA	1.04 ± 0.034
TGCTTCGTGC	0.996 ± 0.012
GGAGTGGGGG	0.984 ± 0.036
TGTTGTATAT	1 ± 0.023
AACGTATATA	1.13 ± 0.026

Sequence	switch fluorescence ratio
CAGTGTACGG	1.04 ± 0.013
TACGCTGACG	1.13 ± 0.087
CTTAGAATGA	0.979 ± 0.025
TATCGGAAGG	0.9901 ± 0.0013
TTGGCGGAGT	1.01 ± 0.032
TCAATTATTT	1 ± 0.023
ACATGACATG	1.04 ± 0.03
GGGATATCAT	0.9903 ± 0.0048
ATGCTAAGTG	0.96412 ± 8.8e-05
TACTGGCTAA	1 ± 0.038
GACGGGCTGG	0.989 ± 0.024
CGTGTGTGCA	1.004 ± 0.0024
AACGTCTTT	1.03 ± 0.071
TCGTGCTGGG	1 ± 0.067
GTCAATAAGG	0.99 ± 0.016
GGATTAGGCG	0.981 ± 0.018
TCAGGGACAA	1.01 ± 0.013
AAGATTAGTG	0.9828 ± 0.0067
GTTGTGGCGT	0.9853 ± 0.0069
ACTACCTTAC	3.15 ± 0.077
TTTCTGTTTG	1.01 ± 0.05
ATGTAGAGGT	0.9803 ± 0.0074
CACGGAGGGG	0.9875 ± 0.0095
AGTTAGGGTC	1 ± 0.012
AGTGTGTTAT	0.974 ± 0.011
